Experimental data from publication doi:10.1101/543413.

Columns and labels:
Assay in all cases: MST
[1] = target: R663H human β-cardiac 25-hep HMM (UniProt P12883)
[2] = target: R663H human β-cardiac sS1 (human) (UniProt P12883)
[3] = target: WT human β-cardiac sS1 (short S1) (human) (UniProt P12883)

Kd [1] | Kd [2] | Kd [3] | Substance
0.9 µM | – | – | C0-C7 fragment of myosin binding protein-C (MyBP-C) (domain or fragment)
– | 50 µM | 67 µM | proximal S2 of human β-cardiac myosin (from UniProt P12883 1-1935) (domain or fragment)
